Measured values from paper PMC5437307 (2017).
Several values for one entry are separate records, joined by “and”; a condition that tells them apart may be missing. Equal entries are not always repeated.

Experiments:
[1] = molecular target: IL-2Rβγc (Homo sapiens) (UniProt P14784); conditions: cited from earlier work
[2] = molecular target: T1, F42A mutant (IL-2-Fc format) (human, UniProt P60568 21-153, F42A); assay: SPR
[3] = molecular target: T1, F42A mutant (IL-2-Fc format); assay: SPR; remark: listed apart in the source

IL-2, sequence (P60568 21-153): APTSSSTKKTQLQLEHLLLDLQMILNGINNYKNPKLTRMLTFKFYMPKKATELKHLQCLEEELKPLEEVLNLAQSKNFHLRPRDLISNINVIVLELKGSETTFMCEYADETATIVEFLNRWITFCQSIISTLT
IL-2Rβγc (Homo sapiens), sequence (P14784 27-240, chain 1 of 2): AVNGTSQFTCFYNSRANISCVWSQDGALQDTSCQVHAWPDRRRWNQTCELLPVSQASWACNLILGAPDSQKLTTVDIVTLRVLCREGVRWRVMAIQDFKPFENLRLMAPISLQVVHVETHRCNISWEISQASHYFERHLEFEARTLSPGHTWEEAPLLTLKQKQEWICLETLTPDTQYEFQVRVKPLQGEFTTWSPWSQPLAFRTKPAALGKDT
IL-2Rβγc (Homo sapiens), sequence (P31785 23-262, chain 2 of 2, further chain): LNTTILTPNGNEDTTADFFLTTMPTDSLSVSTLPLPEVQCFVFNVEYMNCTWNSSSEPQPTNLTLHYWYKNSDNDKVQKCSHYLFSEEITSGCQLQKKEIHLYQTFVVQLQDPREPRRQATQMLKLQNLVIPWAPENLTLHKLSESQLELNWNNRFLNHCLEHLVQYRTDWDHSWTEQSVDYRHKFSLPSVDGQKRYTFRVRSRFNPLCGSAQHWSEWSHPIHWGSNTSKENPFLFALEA

Molecule	Kd [1] [nM]	Kd [2]	koff [3] [s⁻¹]
IL-2 (from UniProt P60568)	1	–	–
hCD25-His (receptor) ELCDDDPPEIPHATFKAMAYKEGTMLNCECKRGFRRIKSGSLYMLCTGNSSHSSWDNQCQCTSSATRNTTKQVTPQPEEQKERKTTEMQSPMQPVDQASLPGHCREPPPWENEATERIYHFVVGQMVYYQCVQGYRALHRGPAESVCKMTHGKTRWTQPQLICTGEMETSQFPGEEKPQASPEGRPESETSCLVTTTDFQIQTEMAATMETSIFTTEYQ	–	1080 nM and 1100 nM	0.325
